Assay results published in the supplement of paper PMC9170038.

System: MS2 coat protein
Experiment: apparent KD of MS2 coat protein; designed switch direction (-1 OFF switch, 1 ON switch): 1; higher = weaker reporter binding
In short: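 Designed RNA switches sharing common flanks were transcribed on Illumina chips by stalled E. coli RNA polymerase. They were titrated with SNAP-549-labelled MS2 coat protein, from 0.7 or 1.5 nM doubling to 3 µM, in Tris-HCl pH 7.5 buffer with KCl, MgCl2, BSA, DTT, tRNA and Tween-20. Titrations ran without input, with 200 uM small-molecule ligand, or with an oligonucleotide input. The apparent KD of each design is the median over its clusters, after curve-fitting of normalised cluster fluorescence.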

[1] = input ligand: microRNA oligo, concentration not stated
[2] = Eterna round: R95, input ligand: FMN 200 uM
[3] = Eterna round: R95, input ligand: microRNA oligo, concentration not stated
[4] = Eterna round: R95, input ligand: none

Row | Sequence | apparent KD of MS2 coat protein (input ligand: FMN 200 uM) [µM] | apparent KD of MS2 coat protein [1] [µM] | apparent KD of MS2 coat protein (input ligand: none) [µM] | apparent KD of MS2 coat protein [2] [µM] | apparent KD of MS2 coat protein [3] [µM] | apparent KD of MS2 coat protein [4] [µM]
1 | UGGUACAUGGGAGGAUAUGGAGUGAUGACAUGAGGAUCACCCAUGUUAUAUAUGCCGAGAGGCAACUAGAAGGCCCAUGUACCU [JL SSNG1 3.97] (Eterna round: R96, puzzle: Same State NG 2) | 0.0194 | 0.121 | 0.137 |  |  | 
2 | UGGUACAUGGGAGGAUAUGGAGUGAUGACAUGAGGAUCACCCAUGUUAUUUAUGCCGAGAGGCAACUAGAAGGCCCAUGUACCU [JL SSNG1 3.96] (Eterna round: R96, puzzle: Same State NG 2) | 0.0167 | 0.0408 | 0.052 |  |  | 
3 | UGGUCUCACUUAGGAUAUUAGCACCGAAAGAGCUAAGAAGGAGGUGAAACUCUCACAUGAGGAUCACCCAUGUACACCCUAGGG [Eternabot solution 3] (Eterna round: R96, puzzle: Same State NG 1) | 0.162 | 0.503 | 1.08 |  |  | 
4 | UGUACCUUCAUAGGAUAUCAUGCGAAAAUUGCGUGAGAAGGGUGAAUACUGUCUUUCUAAGAGUACAUGAGGAUCACCCAUGUA [SameState NG1 #62] (Eterna round: R96, puzzle: Same State NG 1) | 0.181 | 0.133 | 0.152 |  |  | 
5 | UGUCCAGCCUGAGCUGGACAAAAGCAUGUACAUGAGGAUCACCCAUGUUCAUGUACAAGCUUUUUGCUCGUCUUAAG [salish99_208a_r3_032] (puzzle: Sensor for hsa-mir-208a) |  |  |  | 0.547 | 0.0139 | 0.533
6 | UGUCCAGCCUGAGCUGGACAAAAGCAUGUACAUGAGGAUCACCCAUGUUCAUGUACAAGCUUUUUGCUCGUCUUAUC [salish99_208a_r3_057] (puzzle: Sensor for hsa-mir-208a) |  |  |  | 0.401 | 0.0132 | 0.526
7 | UGUCGUUGCAGAGGAUAUGGGAACUCGAUGCCGUAAGGUAUCAUAACAUGAGGAUCACCCAUGUCCCAGAAGGCUGCAGCAAGC [Leatve Mod] (Eterna round: R96, puzzle: Same State NG 2) | 0.0297 | 0.094 | 0.235 |  |  | 
8 | UGUUAACAUGAGGAUCACCCAUGUCAAAAGAAUCGAGGAUAUGGUAAGUAAUAAGAGAAUCUAGAAGGCGAAGUUG [Altered State 1-24 - Jieux - Same State 1] (puzzle: Same State 1) |  |  |  | 0.0427 | 0.0559 | 0.0609
9 | UGUUAACAUGAGGAUCACCCAUGUCAAAUGAAUCGAGGAUAUGGGAAGUAAUAAGAUAAACUAGAAGGCGAAGUUG [Altered State 1-1 - Jieux - Same State 1] (puzzle: Same State 1) |  |  |  | 0.358 | 0.106 | 0.195
10 | UGUUAACAUGAGGAUCACCCAUGUCAAAUGAAUGAAGGAUAUGGAAAGUAAUAAGAUGAACUAGAAGGUCAAGAUG [Altered State 1-22 - Jieux - Same State 1] (puzzle: Same State 1) |  |  |  | 0.0484 | 0.0519 | 0.0498
11 | UGUUGUAUUACAGGAUAUCUAGUAAUUUUAUUUAGAGAAGGGUAUUCACAUGAGGAUCACCCAUGUAUAUACGAGGAAGUUGUG [JMF's solution 35] (Eterna round: R96, puzzle: Same State NG 1) |  | 0.0278 |  |  |  | 
12 | UGUUGUAUUACAGGAUAUCUAUGAUUGUUAUUUAGAGAAGGGUAUUCACAUGAGGAUCACCCAUGUAUAUACGAGGAAGUUGUG [JMF's solution 60] (Eterna round: R96, puzzle: Same State NG 1) | 0.0523 | 0.0367 | 0.0506 |  |  | 
13 | UGUUGUAUUACAGGAUAUCUAUGAUUUUUAUAUAGAGAAGGGUAUUCACAUGAGGAUCACCCAUGUAUAUACGAGGAAGUUGUG [JMF's solution 68] (Eterna round: R96, puzzle: Same State NG 1) |  | 0.0396 |  |  |  | 
14 | UGUUGUAUUACAGGAUAUCUAUUGUUUUGAUUUAGAGAAGGGUAUUCACAUGAGGAUCACCCAUGUAUAUACGAGGAAGUUGUG [JMF's solution 77] (Eterna round: R96, puzzle: Same State NG 1) | 0.0641 | 0.0403 | 0.0506 |  |  | 
15 | UGUUGUAUUACAGGAUAUCUAUUGUUUUUAAUUAGAGAAGGGUAUUCACAUGAGGAUCACCCAUGUAUAUACGAGGAAGUUGUG [JMF's solution 81] (Eterna round: R96, puzzle: Same State NG 1) |  | 0.0376 |  |  |  | 
16 | UGUUUGUUGUGAGGAUAUACAUACACCUUACAUGAGGAUCACCCAUGUUGUAAUUUUGAUAGUUAGUAGAAGGCACUUGGUUAU [JR_SSNG2_Sub045] (Eterna round: R96, puzzle: Same State NG 2) | 0.0352 | 0.0643 | 0.0715 |  |  | 
17 | UGUUUGUUGUGAGGAUAUACAUACACCUUACAUGAGGAUCACCCAUGUUGUUACUUUGAUAGUUAGUAGAAGGCACUUGGUUAU [JR_SSNG2_Sub047] (Eterna round: R96, puzzle: Same State NG 2) | 0.0949 | 0.0916 | 0.14 |  |  | 
18 | UUAAAGAAUUAAGGAUAUUGAAUACAUAUGUUUAACAUGAGGAUCACCCAUGUGGGUUGCGGUAUCGAGAAGGUAAAAUAAUAG [Mat - Same State NG 2 - JL mod - D5] (Eterna round: R96, puzzle: Same State NG 2) | 0.108 | 0.106 | 0.118 |  |  | 
19 | UUAAUGAAGUAAGGAUAUACAUGAGGAUUUCUCGUAGAAGGUACUAUACAUGAGGAUCACCCAUGUGCCGGUCAGAAGACUGGA [Mat - Same State NG 1 - JL mod - D10] (Eterna round: R96, puzzle: Same State NG 1) |  | 0.301 |  |  |  | 
20 | UUAAUGAUGAUAGGAUAUACAUGAGGAAUUCUCGUAGAAGGAUCAUGACAUGAGGAUCACCCAUGUAUCGCUCCGUAGAGCGUA [JL SSNG1 1.14] (Eterna round: R96, puzzle: Same State NG 1) | 0.934 | 0.233 | 0.676 |  |  | 
21 | UUAAUGAUGUAAGGAUAUACAUGAGGAUUUCUCGUAGAAGGUACAAGACAUGAGGAUCACCCAUGUGUCGCUCCGUAGAGCGUA [JL SSNG1 1.09] (Eterna round: R96, puzzle: Same State NG 1) |  | 0.132 |  |  |  | 
22 | UUACUCAUGUAAGGAUAUGCAGCCGUUUCGGCUGCAGAAGGUACUAUAAUACAUGAGGAUCACCCAUGUCUUUUUAAUUUUGAC [JL SSNG1 1.27] (Eterna round: R96, puzzle: Same State NG 1) | 0.0793 | 0.0345 | 0.0392 |  |  | 
23 | UUAUUAAUUACAUGAGGAUCACCCAUGUUUUUAUGUCAGAGACAGGAUAUAGAAGUCUCGUUUUACUAGAAGGGUCAUUAUAAG [JR_SSNG3_Sub015] (Eterna round: R96, puzzle: Same State NG 3) | 0.0186 | 0.0164 | 0.0192 |  |  | 
24 | UUAUUAUUUACAUGAGGAUCACCCAUGUUUUUAUGUCUUAGACAGGAUAUAGUAGUCUCGUUUUACUAGAAGGGUCUUUUUAUU [JR_SSNG3_Sub018] (Eterna round: R96, puzzle: Same State NG 3) | 0.0213 | 0.0319 | 0.0394 |  |  | 
25 | UUCCACGUUGCACAGGAUAUCCAAGCCGUGACAUGAGGAUCACCCAUGUCUAGUAGGCGACUAAGGGAGAAGGGUGUUGUCGUGC [Biuser] (puzzle: Same State 2) |  |  |  | 0.0108 | 0.0101 | 0.0101
26 | UUCUCAUUUACAUGAGGAUCACCCAUGUUUUUUUGUAGGAAAUAGGAUAUAGGUCUCUCGUUUUACUAGAAGGAUUUCCUUAUU [JR_SSNG3_Sub090] (Eterna round: R96, puzzle: Same State NG 3) | 0.0515 | 0.038 | 0.0485 |  |  | 
27 | UUCUCUCUGGUAGGAUAUGUAGGAUAUGUACAUGAGGAUCACCCAUGUCAGUUAAUGACAGAAGGAUAGAAGGACCAGAUCUCU [pwkr ssNG2 2FMN 1F5s.2] (Eterna round: R96, puzzle: Same State NG 2) | 0.115 | 0.0724 | 0.127 |  |  | 
28 | UUGAAGAAUAUAGGAUAUUGAAUACAUAUGUUUAACAUGAGGAUCACCCAUGUGGGUUGCGGUAUCGAGAAGGAUAAAUAAAAG [Mat - Same State NG 2 - JL mod - D14] (Eterna round: R96, puzzle: Same State NG 2) | 0.203 | 0.162 | 0.181 |  |  | 
29 | UUGAAGAAUUAAGGAUAUCGAGUCGUCUAAUUAAACAUGAGGAUCACCCAUGUGGGUUGCGGUAUCGAGAAGGUAAAUUACUAG [JL JR Sub099 mod 3] (Eterna round: R96, puzzle: Same State NG 2) | 0.0252 | 0.0228 | 0.037 |  |  | 
30 | UUGAAGAAUUAAGGAUAUUGAGUACAUAUGUAAAACAUGAGGAUCACCCAUGUGGGUUGCGGUAUCGAGAAGGUAAAAUAAUAG [Mat - same State NG 2 - JL mod - D71] (Eterna round: R96, puzzle: Same State NG 2) | 0.0745 | 0.0796 | 0.0816 |  |  | 
